From paper doi:10.1101/681668 (bioRxiv, 2019)

Target: T1, MBP-ORC2 (human, UniProt Q13416 1-577)
T1 sequence: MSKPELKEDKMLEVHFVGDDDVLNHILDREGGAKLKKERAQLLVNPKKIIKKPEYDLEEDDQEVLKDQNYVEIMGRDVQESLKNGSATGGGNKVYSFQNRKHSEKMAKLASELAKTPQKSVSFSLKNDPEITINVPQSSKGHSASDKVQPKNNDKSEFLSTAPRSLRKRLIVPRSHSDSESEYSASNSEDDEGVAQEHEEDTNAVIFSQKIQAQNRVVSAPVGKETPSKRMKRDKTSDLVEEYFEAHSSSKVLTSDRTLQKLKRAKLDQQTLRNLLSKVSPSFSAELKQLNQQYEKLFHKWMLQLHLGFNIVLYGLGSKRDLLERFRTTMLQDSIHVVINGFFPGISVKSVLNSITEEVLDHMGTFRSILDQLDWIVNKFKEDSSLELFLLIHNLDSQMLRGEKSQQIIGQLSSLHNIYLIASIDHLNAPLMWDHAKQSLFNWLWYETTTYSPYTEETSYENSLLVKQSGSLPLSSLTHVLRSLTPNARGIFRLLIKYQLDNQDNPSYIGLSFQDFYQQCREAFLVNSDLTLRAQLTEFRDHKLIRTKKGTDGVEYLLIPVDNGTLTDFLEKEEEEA
Assay: pull-down

binding result: binds
B1: GST-CDC6 (natural protein)
chain: MPQTRSQAQATISFPKRKLSRALNKAKNSSDAKLEPTNVQTVTCSPRVKALPLSPRKRLGDDNLCNTPHLPPCSPPKQGKKENGPPHSHTLKGRRLVFDNQLTIKSPSKRELAKVHQNKILSSVRKSQEITTNSEQRCPLKKESACVRLFKQEGTCYQQAKLVLNTAVPDRLPAREREMDVIRNFLREHICGKKAGSLYLSGAPGTGKTACLSRILQDLKKELKGFKTIMLNCMSLRTAQAVFPAIAQEICQEEVSRPAGKDMMRKLEKHMTAEKGPMIVLVLDEMDQLDSKGQDVLYTLFEWPWLSNSHLVLIGIANTLDLTDRILPRLQAREKCKPQLLNFPPYTRNQIVTILQDRLNQVSRDQVLDNAAVQFCARKVSAVSGDVRKALDVCRRAIEIVESDVKSQTILKPLSECKSPSEPLIPKRVGLIHISQVISEVDGNRMTLSQEGAQDSFPLQQKILVCSLMLLIRQLKIKEVTLGKLYEAYSKVCRKQQVAAVDQSECLSLSGLLEARGILGLKRNKETRLTKVFFKIEEKEIEHALKDKALIGNILATGLP
